According to patent CN114380913A (SHANGHAI LUBRIGHT MEDICINE TECH CO LTD, dated 2022):

Key:
[1] = target: T1, CHOK1-h PD-L1(GenScript M00543)细胞表面PD-L1 (human, UniProt Q9NZQ7 19-290); assay: FACS on CHOK1-hPD-L1 cells
T1 construct: whole, on cells; also called 细胞表面抗原PD-L1

[2] = target: T1, CHOK1-h PD-L1(GenScript M00543)细胞表面PD-L1; assay: FACS competition: blocks Biotin PD-1 mFc binding to CHOK1-hPD-L1 cells
[3] = target: T2, 生物素标记的人PD-L1(acro，货号:PD1-H82E5) (human, UniProt Q9NZQ7 19-238, biotin label (site not stated)); assay: BLI (Octet RED96e), avidity format: Biotin hPD-L1 on SA sensor, antibody in solution
T2 construct: Bought biotinylated protein; also called Biotin hPD-L1; BiotinhPD-L1

[4] = target: T3, 生物素标记的鼠PD-L1(Sino，货号:50010-M08H-B) (mouse, UniProt Q9EP73 19-238, biotin label (site not stated)); assay: BLI (Octet RED96e), avidity format: Biotin mPD-L1 on SA sensor, antibody in solution
T3 construct: Bought biotinylated protein; also called Biotin mPD-L1

[5] = target: T4, 猴PD-L1-Fc(Acro，货号:PD1-C5253) (monkey (cynomolgus)); assay: BLI (Octet RED96e), avidity format: antibody on CH1 sensor, monkey PD-L1-Fc in solution
T4 construct: Bought Fc fusion; also called Cyno PD-L1; 食蟹猴PD-L1

[6] = target: T5, 人PD-L1 his(Acro，货号:PD1-H5229) (human, UniProt Q9NZQ7 19-238); assay: BLI (Octet RED96e), affinity format: antibody on AHC sensor, human PD-L1 his in solution
T5 construct: Bought protein; also called human PD-L1 his; not shown: His tag

T3 sequence (Q9EP73 19-238 limits assumed, stated change not applied): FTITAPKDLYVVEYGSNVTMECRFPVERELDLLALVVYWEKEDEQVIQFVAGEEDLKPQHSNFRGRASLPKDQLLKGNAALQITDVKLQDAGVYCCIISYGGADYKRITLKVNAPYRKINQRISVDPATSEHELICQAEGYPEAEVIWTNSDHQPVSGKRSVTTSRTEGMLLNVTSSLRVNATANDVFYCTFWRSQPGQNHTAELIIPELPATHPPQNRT

B1: Ab1910T2 (antibody, human IgG1, kappa, N297A, V domains shown)
VH: EVQLVESGGGLVQPGGSLRLSCAASGFPFTNYAMSWVRQAPGKGLEWVSSISGSGAGTYYADSVKGRFTISRDNSKNTLYLQMNSLRAEDTAVYYCAKDLFPTIFGVVTTNYMDVWGKGTTVTVSS
VL: DIQMTQSPSSLSASVGDRVTITCRASQSISSYLNWYQQKPGKAPKLLIYSASSLQIGVPSRFSGSGSGTDFTLTISSLQPEDFATYYCQQSYSIPVTFGQGTKVEIKR
notes: Full human IgG1 (Fc N297A) / kappa, made in ExpiCHO; also called 本申请抗PD-L1抗体Ab1910T2; 所述抗PD-L1单克隆抗体
In the case of B1, the EC50 [1] is reported as 0.02 µg/mL, the IC50 [2] is reported as 1.02 µg/mL and the Kd [3] is reported as ~0.15 nM. It also gave a Kd [4] of ~0.58 nM, a Kd [5] of ~0.79 nM and a Kd [6] of ~26 nM.
